Experimental findings from US20240287172A1 (SCIRHOM, published 2024) are described below.

Substitutions are numbered along the chain they refer to. A value given as a limit tells only on which side of the number the result lay.

The assay has as its target T1, hiR2-FL-L589P-T7 (human, UniProt Q6PJF5 1-856).
T1 sequence: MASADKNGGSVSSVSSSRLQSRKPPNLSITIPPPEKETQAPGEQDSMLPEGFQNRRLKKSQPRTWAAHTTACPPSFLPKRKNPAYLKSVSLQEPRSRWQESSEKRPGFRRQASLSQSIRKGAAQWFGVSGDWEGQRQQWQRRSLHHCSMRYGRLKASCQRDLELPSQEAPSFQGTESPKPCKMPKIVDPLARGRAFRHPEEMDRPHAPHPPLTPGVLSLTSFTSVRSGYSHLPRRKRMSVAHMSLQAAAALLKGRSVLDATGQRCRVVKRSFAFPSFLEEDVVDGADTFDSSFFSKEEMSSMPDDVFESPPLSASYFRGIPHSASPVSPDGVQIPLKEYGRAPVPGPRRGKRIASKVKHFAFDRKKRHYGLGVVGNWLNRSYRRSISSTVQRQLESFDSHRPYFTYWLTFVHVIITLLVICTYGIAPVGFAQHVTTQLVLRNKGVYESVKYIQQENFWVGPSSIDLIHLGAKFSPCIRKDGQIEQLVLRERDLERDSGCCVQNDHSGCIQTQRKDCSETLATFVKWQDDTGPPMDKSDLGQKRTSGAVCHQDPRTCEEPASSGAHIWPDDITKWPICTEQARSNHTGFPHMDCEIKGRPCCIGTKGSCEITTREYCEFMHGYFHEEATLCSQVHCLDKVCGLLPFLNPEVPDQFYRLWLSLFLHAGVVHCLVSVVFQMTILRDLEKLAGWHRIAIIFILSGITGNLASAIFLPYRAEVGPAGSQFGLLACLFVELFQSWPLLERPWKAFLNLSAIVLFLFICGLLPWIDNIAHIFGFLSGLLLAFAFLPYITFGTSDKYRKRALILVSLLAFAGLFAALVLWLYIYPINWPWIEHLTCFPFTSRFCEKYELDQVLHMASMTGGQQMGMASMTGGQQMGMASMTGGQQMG
The experiment in a line: FACS, MEF-DKO cells, 3 µg/ml. An outline of the steps:
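Binding read by flow cytometry after a PE goat anti-mouse IgG F(ab′)2 secondary (1:100, on ice, 1 h, dark). Before that, immortalized MEF-DKO lines carrying single-mutant hiR2-FL-T7 constructs were incubated 1 h on ice with 3 μg/ml antibody or FACS buffer alone.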

B1: antibody 48 (antibody, V domains shown)
VH: QVQLQQSGTELVRPGTSVKVSCKASGYAFTNYLIEWVKQRPGQGLEWIGVINPGSGFTKYNEKFKGKATLTADKSSSTVYMHLSSLTSEDSAVYFCARGLYRAMDYWGQGTSVTVSS
VL: DIQMTQSPASQSASLGESVTITCLASQTIATWLAWYQQKPGKSPQLLIYGATTLADGVPSRFSGGGSGTKFSFKISSLQAEDFVSYYCQQLYSTPYTFGGGTKLEIK
notes: mouse IgG, kappa light chain; also called clone #48; purified antibody 48
B1: the “loss of binding vs wild type” value is no less than 60%.

B2: antibody 50 (antibody, V domains shown)
VH: B1 VH with T9A, T16A, T30S, V79A, H82Q
VL: B1 VL with A30G, G50A, T52A, T53S, S85N, L91I
notes: mouse IgG, kappa light chain; also called clone #50; purified antibody 50
As for B2, the “loss of binding vs wild type” value is no less than 95%.
